From patent publication US20230295259A1 (Protagonist Therapeutics, Inc., priority 2020, published 2023)
Starred links: 1 amine or outer side, 2 acyl side, 3 side chain; linkers in the order of their positions; H or OH if unused. Positions of bridges follow the written chain, without caps; N, C: chain ends. Non-standard residues stand in square brackets, D forms with d. Groups on a side chain read outwards from the residue. *: point of attachment. Glu(OMe) = COC(=O)CC[C@H](N[*:1])C(=O)[*:2]; C18 diacid = O=C(O)CCCCCCCCCCCCCCCCC(=O)*; Dip = N[C@H](C(=O)O)C(c1ccccc1)c1ccccc1; Palmitoyl = CCCCCCCCCCCCCCCC(=O)*; β3hF = N[C@H](CC(=O)O)Cc1ccccc1; 4Amb = NCc1ccc(C(=O)O)cc1; Isovaleryl = CC(C)CC(=O)*; Dap = NC[C@H](N)C(=O)O; AEEA = NCCOCCOCC(=O)O; Ahx = NCCCCCC(=O)O

T1: human ferroportin (SLC40A1) fused in frame with GFP, stably expressed in HEK293 cells (human, UniProt Q9NP59 1-571)
T1 sequence (looked up): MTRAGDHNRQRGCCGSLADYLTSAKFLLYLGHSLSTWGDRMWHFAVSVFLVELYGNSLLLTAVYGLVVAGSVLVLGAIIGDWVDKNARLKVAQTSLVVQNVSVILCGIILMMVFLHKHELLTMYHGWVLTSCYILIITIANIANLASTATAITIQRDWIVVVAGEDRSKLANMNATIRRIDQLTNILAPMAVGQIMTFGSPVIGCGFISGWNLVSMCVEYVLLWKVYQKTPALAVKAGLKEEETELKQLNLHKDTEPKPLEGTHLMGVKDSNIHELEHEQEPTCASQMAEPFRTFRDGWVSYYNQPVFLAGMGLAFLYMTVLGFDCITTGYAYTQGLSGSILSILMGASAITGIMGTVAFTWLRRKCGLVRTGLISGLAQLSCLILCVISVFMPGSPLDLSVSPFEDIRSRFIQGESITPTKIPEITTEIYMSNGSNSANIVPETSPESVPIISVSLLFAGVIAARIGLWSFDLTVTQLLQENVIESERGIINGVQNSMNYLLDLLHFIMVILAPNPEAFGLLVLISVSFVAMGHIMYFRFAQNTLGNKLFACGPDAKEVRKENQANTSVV


Molecular target: T1, human ferroportin (SLC40A1) fused in …
Assay: cell-based or functional assay

Row | Binder | IC50: FPN internalisation
1 | XETXXPCIXXXXC (not fully specified; [Isovaleric Acid]-E-T-[Lys(Acrylamide)]-[Dpa]-P-C-I-[(D)Lys]-[bhPhe]-[Lys(Ahx_Palm)]-[(D)Lys]-C-NH2) [Seq. No. 552] | 48 nM
2 | XXTYXPCIXXXC ([Isovaleric Acid]-[Glu(OMe)]-T-Y-[Dpa]-P-C-I-[Lys(1PEG2_1PEG2_Ahx_C18_Diacid)]-[bhPhe]-[(D)Lys]-C-NH2) [Seq. No. 497] | 35.3 nM
3 | XETHXPCIXXXC ([Isovaleric Acid]-E-T-H-[Dpa]-P-C-I-[N-MeLys(Ahx_Palm)]-[bhPhe]-[(D)Lys(Carnitine)]-C-NH2) [Seq. No. 542] | 9.02 nM
4 | XXTHXPCIXXXC ([Isovaleric Acid]-[IsoGlu]-T-H-[Dpa]-P-C-I-[Lys(1PEG2_1PEG2_Ahx_C18_Diacid)]-[bhPhe]-[(D)Lys(PEG11_OMe)]-C-NH2) [Seq. No. 533] | 203 nM
5 | XEXHXPCIXXXXC (not fully specified; [Isovaleric Acid]-E-[Lys(Acrylamide)]-H-[Dpa]-P-C-I-[(D)Lys]-[bhPhe]-[Lys(Ahx_Palm)]-[(D)Lys]-C-NH2) [Seq. No. 551] | 90 nM
6 | XXTHXPCIXXXC ([Isovaleric Acid]-[(D)Glu]-T-H-[Dpa]-P-C-I-[Lys(1PEG2_1PEG2_Ahx_C18_Diacid)]-[bhPhe]-[(D)Lys(PEG11_OMe)]-C-NH2) [Seq. No. 540] | 142 nM
7 | XEXHXPCIXXXC (not fully specified; [Isovaleric Acid]-E-[Dap]-H-[Dpa]-P-C-I-[Lys(1PEG2_1PEG2_Ahx_C18_Diacid)]-[bhPhe]-[(D)Lys]-C-NH2) [Seq. No. 547] | 24.8 nM
8 | XXTHXPCIXXXC ([Isovaleric Acid]-[Glu(OMe)]-T-H-[Dpa]-P-C-I-[Lys(PEG2_1PEG2_DMG_N_2ae_C18_Diacid)]-[bhPhe]-[(D)Lys]-C-NH2) [Seq. No. 545] | 14.6 nM
9 | XXTWXPCIXXXC ([sovaleric Acid]-[Glu(OMe)]-T-W-[Dpa]-P-C-I-[Lys(1PEG2_1PEG2_Ahx_C18_Diacid)]-[bhPhe]-[(D)Lys]-C-NH2) [Seq. No. 498] | 124 nM
10 | Isovaleryl-[Glu(OMe)]TH[Dip]PCIK([AEEA-AEEA-Dap-C18 diacid])[β3hF][dR]C-NH2 (disulfide 6-11 (inferred)) [Seq. No. 535] | 21 nM
11 | XXTHXPCIXXXC ([Isovaleric Acid]-[Glu(OMe)]-T-H-[Dpa]-P-C-I-[Lys(1PEG2_1PEG2_Dap_C18_Diacid)]-[Achc]-[(D)Lys]-C-NH2) [Seq. No. 507] | 29.6 nM
12 | XEXHXPCIXXXXC (not fully specified; [Isovaleric Acid]-E-[Dab]-H-[Dpa]-P-C-I-[(D)Lys]-[bhPhe]-[Lys(Ahx_Palm)]-[(D)Lys]-C-NH2) [Seq. No. 548] | 46.3 nM
13 | Isovaleryl-ETH[Dip]PC[4Amb]K([AEEA-AEEA-Ahx-C18 diacid])[β3hF][dK]C-NH2 (not fully specified (bridges); cysteine pairing not given here) [Seq. No. 550] | 13.1 nM
14 | XXTHXPCIXXXC ([Isovaleric Acid]-[Glu(OMe)]-T-H-[Dpa]-P-C-I-[Lys(1PEG2_1PEG2_Dap_C18_Diacid)]-[bhPhe(4-Me)]-[(D)Lys]-C-NH2) [Seq. No. 505] | 16.7 nM
15 | Isovaleryl-ETHFPCIK(Ac)F[dK]C-NH2 (disulfide 6-11 (inferred)) [Seq. No. 478] | 69.9 nM
16 | XXTXXPCIXXXC ([Isovaleric Acid]-[Glu(OMe)]-T-[4Pal]-[Dpa]-P-C-I-[Lys(1PEG2_1PEG2_Dap_C18_Diacid)]-[bhPhe]-[(D)Lys]-C-NH2) [Seq. No. 499] | 14.3 nM
17 | XETHXPCIXXXXC ([Isovaleric Acid]-E-T-H-[Dpa]-P-C-I-[(D)Lys]-[bhPhe]-[N-MeLys(Ahx_Palm)]-[(D)Lys(Carnitine)]-C-NH2) [Seq. No. 541] | 26 nM
18 | XXTHXPCIXXXC ([Isovaleric Acid]-[Glu(OMe)]-T-H-[Dpa]-P-C-I-[Lys(1PEG2_1PEG2_Dap_C18_Diacid)]-[bhPhe]-[(D)Lys(Ac)]-C-NH2) [Seq. No. 521] | 10.1 nM
19 | XETHXPCIXXXXC ([Isovaleric Acid]-E-T-H-[Dpa]-P-C-I-[(D)Lys]-[bhPhe]-[Lys(Ahx_DMG_N_2ae_Palm)]-[(D)Lys]-C-NH2) [Seq. No. 527] | 31 nM
20 | XXTHXPXIXXXXC ([Isovaleric Acid]-[Glu(OMe)]-T-H-[Dpa]-P-[(D)Cys]-I-[(D)Lys]-[bhPhe]-[Lys(PEG2_1PEG2_DMG_N_2ae_C18_Diacid)]-[(D)Lys]-C-NH2) [Seq. No. 494] | 107 nM
21 | XXTHXPCIXXXC ([Isovaleric Acid]-[(D)Arg]-T-H-[Dpa]-P-C-I-[Lys(1PEG2_1PEG2_Dap_C18_Diacid)]-[bhPhe]-[(D)Lys]-C-NH2) [Seq. No. 537] | 33.8 nM
22 | Isovaleryl-[Glu(OMe)]TH[Dip]PCI[dK][β3hF]K([Ahx-Palmitoyl])[dR]C[dR]-NH2 (disulfide 6-12 (inferred)) [Seq. No. 500] | 52.5 nM
23 | Isovaleryl-[Glu(OMe)]TH[Dip]PC[dR]K([AEEA-AEEA-Dap-C18 diacid])[β3hF][dK]C-NH2 (disulfide 6-11 (inferred)) [Seq. No. 536] | 94.1 nM
24 | XXTHXPCIXXXC ([Isovaleric Acid]-[Glu(OMe)]-T-H-[Dpa]-P-C-I-[Lys(Ahx_DMG_N_2ae_Palm)]-[bhPhe]-[(D)Lys]-C-NH2) [Seq. No. 532] | 7.14 nM
25 | Isovaleryl-[Dap]TH[Dip]PCI[dK][β3hF]K([Ahx-Palmitoyl])[dR]C-NH2 (disulfide 6-12 (inferred)) [Seq. No. 502] | 55.7 nM
26 | XETHXPCIXXXXC ([Isovaleric Acid]-E-T-H-[Dpa]-P-C-I-[(D)Lys]-[bhPhe]-[Lys(DMG_N_2ae_Palm)]-[(D)Lys]-C-NH2) [Seq. No. 525] | 7.98 nM
